This series concerns the molecule itself. The series is described as follows: native gel or EMSA; native PAGE, 4-20% Tris-glycine gel, native running buffer pH 7.5, Coomassie staining; samples in native sample buffer heated 10 min at 57 °C (recombinant CRT with or without 3 days at 42 °C). For orientation: In EMSA bound probe runs differently from free probe, usually more slowly.

B1: full-length recombinant wild-type calreticulin (natural protein, human, UniProt P27797 18-417, looked up)
chain: EPAVYFKEQFLDGDGWTSRWIESKHKSDFGKFVLSSGKFYGDEEKDKGLQTSQDARFYALSASFEPFSNKGQTLVVQFTVKHEQNIDCGGGYVKLFPNSLDQTDMHGDSEYNIMFGPDICGPGTKKVHVIFNYKGKNVLINKDIRCKDDEFTHLYTLIVRPDNTYEVKIDNSQVESGSLEDDWDFLPPKKIKDPDASKPEDWDERAKIDDPTDSKPEDWDKPEHIPDPDAKKPEDWDEEMDGEWEPPVIQNPEYKGEWKPRQIDNPDYKGTWIHPEIDNPEYSPDPSIYAYDNFGVLGLDLWQVKSGTIFDNFLITNDEAYAEEFGNETWGVTKAAEKQMKDKQDEEQRLKEEEEDKKRKEEEEAEDKEDDEDKDEDEEDEEDKEEDEEEDVPGQAKDEL
notes: calreticulin, human, Prot id P27797; called full-length recombinant wt CRT; Oligomers formed after heat treatment (57 °C 10 min, with or without 42 °C for 3 days); also called CRT; wt CRT; source: recombinant, produced using standard protocols and purified as previously described by Čiplys and colleagues [39]
B1: the binding result was “binds”.

B2: calreticulin purified from human placenta (natural protein, UniProt P27797 18-417, looked up)
chain: EPAVYFKEQFLDGDGWTSRWIESKHKSDFGKFVLSSGKFYGDEEKDKGLQTSQDARFYALSASFEPFSNKGQTLVVQFTVKHEQNIDCGGGYVKLFPNSLDQTDMHGDSEYNIMFGPDICGPGTKKVHVIFNYKGKNVLINKDIRCKDDEFTHLYTLIVRPDNTYEVKIDNSQVESGSLEDDWDFLPPKKIKDPDASKPEDWDERAKIDDPTDSKPEDWDKPEHIPDPDAKKPEDWDEEMDGEWEPPVIQNPEYKGEWKPRQIDNPDYKGTWIHPEIDNPEYSPDPSIYAYDNFGVLGLDLWQVKSGTIFDNFLITNDEAYAEEFGNETWGVTKAAEKQMKDKQDEEQRLKEEEEDKKRKEEEEAEDKEDDEDKDEDEEDEEDKEEDEEEDVPGQAKDEL
notes: calreticulin, human, Prot id P27797, purified from placenta; Heat-treated (57 °C 10 min) before native PAGE; also called CRT; human CRT purified from human placenta; source: purified from human placenta
Turning to B2, the binding result is reported as “binds”.

For the origin of these results see paper PMC8395503, “Epitope Mapping of Monoclonal Antibodies to Calreticulin Reveals That Charged Amino Acids Are Essential for Antibody Binding” (Antibodies, 2021).
